Reference: the supplement of paper PMC9942255

tested on: Bacillus subtilis DB104 (SP-AmyQ fusion secretion); assay: AmyQ secretion efficiency, weighted average sort bin (1 = best secretion, 10 = worst) (bin number (weighted average, 1-10)); higher = lower secretion efficiency
Method in brief: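 Secretion score gives the read-frequency-weighted average bin number, normalised to beads per bin, with low-abundance sequences left out. A B. subtilis DB104 library expressing mature AmyQ fused to designed signal peptides, integrated at amyE, was encapsulated with fluorescein-starch at about 0.3 cells per ~65 nL alginate bead. Beads were grown about 13 h at room temperature, stained with nile red, and the occupied ones were sorted by large-particle flow cytometry into 10 equally populated bins by green/red fluorescence ratio before the amplicons from each bin were Illumina-sequenced.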

Compared with MKTKTLFIFSAILTLSIFAPNEMFAQTA, MAIIIAIIAAVIVIAALITFNVRNWSPG is higher in AmyQ secretion efficiency: 1.9 for the first, 8.18 for the second.

First: MKSSSSALLLLLFAFEPSASGKKL
Second: MKKRKRRNFKRFIAAFLVLALMISLVPADVLAKRK
The AmyQ secretion efficiency of the first is higher: 7.85 for the first, 3.6 for the second.

Going from MTGTTVSTAIIIISVMLSFVIAVFHTIHASELTP to MMKKLFHSTLIVLLFFSFFGVSPIHAKKQ, the AmyQ secretion efficiency falls from 4.15 to 2.2.

Compared with MKKLLAAGIIGLLTVSIASPSFARRK, MFMLTMNNMAIIIAIIAAVIVIAALITFNVRNASPG is lower in AmyQ secretion efficiency: 6.83 for the first, 6.62 for the second.

Compared with MRKKRVITCVMAASLTLGSLLPAGYMSAKED, MKSKGSIMSACLILFSFTITTFINTETISAFSN is higher in AmyQ secretion efficiency: 2.67 for the first, 3.07 for the second.

First: MNKPTKGFSTLALAAGSTAAAAGGAGTIHAQQP
Second: MSPVFPLILSAVLFLSCFFGARQTEASASKR
The AmyQ secretion efficiency of the first is higher: 8.05 for the first, 2.21 for the second.

Compared with MKKWIYVVLVLSIAGIGGFSVHAKKR, MKKLIQVMIMFTLLLTMAFSADAADS is lower in AmyQ secretion efficiency: 6.58 for the first, 4.44 for the second.

Going from MRKWYFILLAGVLTSVILAFVYDKGKANEE to MKSKWMSGLLLVAVGFSFITQVMVHAGET, the AmyQ secretion efficiency rises from 2.67 to 6.13.

First: MKKLIMALVILGALRKRYISADSS
Second: MKLAKRGKSYYPYTSLAITAKAKEL
The AmyQ secretion efficiency of the first is lower: 7.22 for the first, 8.51 for the second.

Going from MKKCLLFLTTIALILSLSTNAFAANE to MQRKRLLTIYIMLLGLIAWFPGAAQAEEK, the AmyQ secretion efficiency rises from 1.03 to 1.93.

Going from MTKKAWFLPLVCVLLISGWLAPAASASVQTT to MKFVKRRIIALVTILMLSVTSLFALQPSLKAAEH, the AmyQ secretion efficiency rises from 2.48 to 2.75.

Going from MKWMCSICCAAVLLAGEDEDEDAQAEAV to MKKVLMAFIICLSLILEDDDEEDSGAKAESV, the AmyQ secretion efficiency falls from 8.04 to 4.1.

Going from MHLIRAAGAVCLAVVLIAGCRFNEDQHQAEPENT to MKKQIITATTAVVLGSTLFAGAPPATASVPVVGASAQSI, the AmyQ secretion efficiency falls from 6.25 to 2.17.

Compared with MKKAFILSAAAAVGLFTFGGVQQASGKEL, MKSKGSIMACLILFSFTITTFINTETISFFSN is higher in AmyQ secretion efficiency: 3.67 for the first, 6.76 for the second.

First: MRKTIFAFLTGLMMFGTITAMSASPD
Second: MGLGKKLSVAVAASFMSLSISLPGVQNAEG
The AmyQ secretion efficiency of the first is higher: 5.39 for the first, 2.95 for the second.

Compared with MKKRLIAPMLLSAASLAFFAMSGSIQAAAY, MRSYIKVLTMCFLGLILFVPTALNDNS is higher in AmyQ secretion efficiency: 6.12 for the first, 6.3 for the second.

First: MKRKLLSSLAISALSLGSAPTASFAAES
Second: MKKIWIGMLAAAVLLLSVFAMVPKVSLADAA
The AmyQ secretion efficiency of the first is lower: 3.3 for the first, 4.61 for the second.

Going from MKLAKRVSALTPSTTLAIKKKKRAKAKEL to MKKKQVMLALTAAAGLGLTALHSAPAAKAADD, the AmyQ secretion efficiency falls from 7.08 to 3.53.

Going from MKKWIYVVLVLSIAGIGGFSVHKASS to MSGSSVMMLALTAAAGLGLTALHSAPAAKAAPL, the AmyQ secretion efficiency falls from 4.97 to 2.7.

Compared with MKKLLAAGIIGLLTVSIASPSFHAEK, MGFGSTLVVSALSISALALSVSGVASAHEI is lower in AmyQ secretion efficiency: 6.26 for the first, 3.47 for the second.

Going from MKSCKQLIVCSLAAILLLIPSVWFAADS to MKKQIITATTAVVLGSTLFAGAASSQSI, the AmyQ secretion efficiency falls from 4.55 to 1.97.

Going from MPRKKKQKYRCLAVTLVFGSMSFPTLTNSGGFKE to MKKVLMAFIICLSLILDVLAAPPSGAKAESV, the AmyQ secretion efficiency falls from 6.94 to 1.95.

Compared with MTGLWRSLALCGLALTLAPCAQAAEP, MKSKGSIMACLILFSFTITTFINTETWSAFSN is higher in AmyQ secretion efficiency: 2.01 for the first, 7.56 for the second.

Compared with MKKWKYRRRVVLVLSIAGIGGFSVHAASS, MNFKKTVVSALSISALALSVSGVVSAHEI is lower in AmyQ secretion efficiency: 7.42 for the first, 2.69 for the second.

First: MHRRRKAAGAVCLAVVLIAGCRFNEDQHQAEGENT
Second: MKSKGSIMACLILFSFTITTFINTETFSAFSN
The AmyQ secretion efficiency of the first is lower: 4.73 for the first, 7.43 for the second.

Going from MRPVFPLILSAVLFLSCFFGARQTEASCSKR to MKSKWMSGLLLVAVGFSFTQVMVHAGTT, the AmyQ secretion efficiency rises from 3.44 to 5.78.

Going from MKFVKRRGSRGQTTSTLSVTSLFALQPSAKAAEH to MRSYIKVLTMCFLGLILFVFSSLPTALADNS, the AmyQ secretion efficiency falls from 5.84 to 2.22.

First: MFTWIYVVLVLSIAGIGGFSVHAASS
Second: MRKKRVITCVMAASLTLGPAGYATAKED
The AmyQ secretion efficiency of the first is higher: 5.5 for the first, 2.6 for the second.

First: MKKAWFLPLVCVLLISGWLAPAASASAQTT
Second: MKRTWNVCLTALLSVLLVAGSVRRRRKRKHAEAKKP
The AmyQ secretion efficiency of the first is lower: 2.33 for the first, 8.2 for the second.

Compared with MMIKQCTICLSLLVFGTTAAHAEET, MKKRKRKILLSSALSFGMLISAVPALAAGT is higher in AmyQ secretion efficiency: 2.71 for the first, 3.32 for the second.

Compared with MLCVMMLLFSAIASFPVSAQAKKK, MKRKKLCLWFTVFSLFLVLLPGKALGAVD is lower in AmyQ secretion efficiency: 7.53 for the first, 4.65 for the second.

Going from MKKKRLLLATSALTFSLSLVLPLDGHAKAQEV to MKKKVKIAGVLTVAAAAMTAKMYATAKGN, the AmyQ secretion efficiency rises from 2.9 to 6.8.

Going from MTKKAWFLPLVCVLLISGWLAPAASRSAQTT to MTTAAAVLLSLGLVFGFSYGAGHVAEAKTK, the AmyQ secretion efficiency falls from 5.9 to 2.82.

First: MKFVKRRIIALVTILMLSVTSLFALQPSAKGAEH
Second: MKLAKRVSALTPSTTLAITGKAKEL
The AmyQ secretion efficiency of the first is lower: 3.59 for the first, 7.09 for the second.

First: MKKVRRATALFLGLTPAGANAADL
Second: MGLGKKLSVAVAASFMSLSISLDDEVQAAEG
The AmyQ secretion efficiency of the first is higher: 7.17 for the first, 1.35 for the second.

Compared with MKKQSYSATTAVVLGSTLFAGAASAQSI, MKKKIVAGLAVSAVVGSSMAAEAKTI is lower in AmyQ secretion efficiency: 5.86 for the first, 5.65 for the second.

Going from MLKKKWMVGLLAGCLAAGGFSYNAFQTEN to MGCGTQGKGSGIASFPVSAQAKDQ, the AmyQ secretion efficiency falls from 6.95 to 6.09.

Going from MLKRTSFVSSLFISSAVLLSILLPSGQVHAQSA to MKRIRIPMTLALGAALTIAPLSFQSAEEN, the AmyQ secretion efficiency rises from 1.69 to 6.97.

Going from MHLIRAAGAVCLAVVLIAGCRFNEDQHQGEGENT to MKKWTNMSLLIIAVSLAIAIVLFMYTKGEAKAAGM, the AmyQ secretion efficiency falls from 6.63 to 2.33.

Compared with MKKCLLFLTTIALILISLSTNAFAKNT, MKKLLAAGIIGLLTVRRRKKKSFAAEK is higher in AmyQ secretion efficiency: 2.13 for the first, 7.21 for the second.

Going from MFKKHTISLLIIFLLASAVLAKPIEADEE to MPYLKRVLLLLVTGLFMSLFAVTATASAQDD, the AmyQ secretion efficiency falls from 3.49 to 3.08.

First: MKWMCSICCAAVLLAGGAAQVEAV
Second: MKRKLLSSLAISALSLGLLVSAPTASFAATR
The AmyQ secretion efficiency of the first is higher: 2.92 for the first, 2.21 for the second.

Compared with MTTTAWFLPLVCVLLISGWLAPAASASAQTT, MKKWMITIAMLILAGIALFVFISPYKSHKT is higher in AmyQ secretion efficiency: 2.09 for the first, 6.74 for the second.

First: MRKWYFILLAGVLTSVILAFVYDKTKANDD
Second: MKKWIYVVLVLSIAGIGGFSVHWASS
The AmyQ secretion efficiency of the first is lower: 6.75 for the first, 7.53 for the second.

Compared with MKNMSCKLVVSVTLFFSFLTIGPLIHAQNS, MKKCLLFLTTIALILSLSTTAFAKNT is higher in AmyQ secretion efficiency: 1.06 for the first, 1.16 for the second.

First: MLMSIALTLCPAIVGSLLFFTAPASAHVS
Second: MKKKLAAGLTASAIVGTVTPAEAATI
The AmyQ secretion efficiency of the first is lower: 4.17 for the first, 5.84 for the second.

Going from MKRTWNTTTVCLTALLSVLLVAGSVPFHAEAKKP to “MKKMSNSTNSMSVLMAFIICLSLILSVLAAPPSGAKAESV”, the AmyQ secretion efficiency falls from 2.17 to 1.73.

Going from MHLIRAAGAVCLAVVLIAGCRFNEDQHQAEEENT to MRKKRVITCVMAASLTLGSLLPAGYASAASD, the AmyQ secretion efficiency falls from 4.77 to 1.13.

First: MKRTLPLLIVCLAFSSFSASARAASE
Second: MKKGIIRFLLVSFVLFFALLAFVVISFFSTGITGVQAAPA
The AmyQ secretion efficiency of the first is higher: 2.25 for the first, 2.07 for the second.

Compared with MKKAFILSAAAAVGLFTFSIGGVQQASAKEL, MKRFILVLSFLSIIVKRRRRRTNASPM is higher in AmyQ secretion efficiency: 3.67 for the first, 7.31 for the second.

Going from MRNLTKTSLLLAGLCTAAQMVFVTHTFTFVGASAEES to MRSYIKVLTMCFLGLILFVPTALAANR, the AmyQ secretion efficiency falls from 7.25 to 2.08.

Compared with MFNRLFRVCFLAALIMAFTLPNSNYAQKP, MKKRLIAPMLKRAASLAFFAMSGSAQAAAY is higher in AmyQ secretion efficiency: 5.99 for the first, 6.4 for the second.

First: MRHKIITFILAVVVIIIIGNMIGGGGGSEATSK
Second: MLKKKWMVGLLAGCLAAGGFSYNAFHTEN
The AmyQ secretion efficiency of the first is lower: 5.87 for the first, 6.18 for the second.

First: MRKFLLAAALGISLLASSNFIKASND
Second: MRSKKLWISLLFALTLIFTMAFSNMSAQAAGQ
The AmyQ secretion efficiency of the first is higher: 4.88 for the first, 2.13 for the second.

Going from MFKKHTISLLIIFLLASAVLAKPIEARKK to MNLRKILLSSALSLGMLVSAAPTLATSS, the AmyQ secretion efficiency rises from 2.26 to 2.34.

Compared with MKKWMAGLFLAAAVLLCLMVPQQIQFASS, MKQGKFSVFLILLLMLTLVVTIFAALVIAPKEKAEAASS is lower in AmyQ secretion efficiency: 5.75 for the first, 3.57 for the second.

Going from MRRKRKRTSLLLAGLCTAAQMVFVTHASAEES to MKKWIYVVLVLSIAGIGGFSVHTASS, the AmyQ secretion efficiency rises from 2.89 to 6.85.

Going from MKKKQVMLALTAAAGLGLTALHSAPAKKAAPL to MKRLFMKARRRLFAVVFVFAVKGAPAKAETH, the AmyQ secretion efficiency rises from 5.87 to 6.05.

First: MGLGKKLSVAVAASFMSLSISLPGVQRAEG
Second: MKKRLIGFLVLVPALIMSGITLEEANKK
The AmyQ secretion efficiency of the first is lower: 2.64 for the first, 7.58 for the second.

Going from MRKYTVIASILLSFLSVLFGVAHESKAFPV to MNITIMSFVAVAALSTTAFGAHASAKEI, the AmyQ secretion efficiency falls from 3.89 to 3.64.

Going from MKWMCSICCAAVLLAGAAAAQAEAV to MSKTGRYTKAVIVIAALITFNVRNASPG, the AmyQ secretion efficiency falls from 4.13 to 4.05.

Going from MRNLTKTSLLLAGLCQMVFVTHASAEES to MFKKLRKKKKRLTFSLSLVLPLDGHAKAQEV, the AmyQ secretion efficiency rises from 3.18 to 6.86.

Compared with MKSKWMSGLLLVAVGFSFTLFSSAVVSTQVMVHAGET, MYKKFVPFAVFLFLFFVSFRKMRNPHALDY is lower in AmyQ secretion efficiency: 7.18 for the first, 6.42 for the second.
